Assay in all cases: SPR (Biacore T200), 100 nM mAb on NGF chip, similarity to parent mAb
A general note: SPR reads the build-up and loss of mass on a sensor chip optically.

For one assay, the target named is T1, human NGF (human, UniProt P01138 122-241).
T1 construct: also called human Nerve Growth Factor; hN
T1 chain: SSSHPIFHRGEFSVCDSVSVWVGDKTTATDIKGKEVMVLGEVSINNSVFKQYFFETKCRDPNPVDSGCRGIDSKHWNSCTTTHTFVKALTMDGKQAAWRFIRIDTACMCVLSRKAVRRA
The source says:
(§1) The region of an antibody responsible for antigen recognition represents the paratope. A paratope is created by a combination of amino acids in the complementarity determining regions (CDRs) of both the heavy and light chain variable regions. The binding between antibody and antigen is often mediated by side chains of CDR residues with side chains or carbohydrate moieties of the antigen. To help define critical side chains involved in antibody recognition alanine scanning mutagenesis was performed on each CDR residue in both the heavy and light chain, the technique as described by Cunningham and Wells (1989) Science, Vol. 244, Issue 4908, pp. 1081-1085. These mutants were then individually tested for the ability to NGF using the Biacore. […] Values were then compared to the wild type antibodies and are represented in the tables as a percent of wild type binding. The data presented in Tables 4 and 5 below are shown as a “percent similarity score” compared to wild type.
(§2) The mean response unit of four replicates of the parent mAb+/−3 standard deviations was used to generate parameters to define a threshold of response units comprising both the on- and off-rates antibody binding. The percentage of data points for each mutant fell within this threshold was then used to define a “% similarity score”. […] Results from substitution of alanine at each CDR position

A further assay concerns the target T2, canine NGF (canine, UniProt Q29074 110-229 (pig entry), limits assumed).
T2 construct: The protein was secreted from CHO cells and purified; also called cNGF; canine β-NGF
T2 chain: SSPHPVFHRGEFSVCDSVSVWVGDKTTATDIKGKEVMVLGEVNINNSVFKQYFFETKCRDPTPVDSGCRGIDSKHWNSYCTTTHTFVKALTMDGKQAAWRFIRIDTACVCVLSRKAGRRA
Excerpt: as §1, §2

The next assay concerns the target T3, rat NGF (rat, UniProt P25427 122-241).
T3 construct: also called rN
Excerpt: as §1, §2

T3 sequence (P25427 122-241 limits assumed): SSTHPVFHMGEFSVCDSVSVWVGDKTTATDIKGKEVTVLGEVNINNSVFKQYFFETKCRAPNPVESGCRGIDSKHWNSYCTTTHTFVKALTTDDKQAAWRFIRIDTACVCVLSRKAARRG

B1: can9L12VH_E99A (antibody, V domains shown)
VH: EVQLVESGGDLVKPGGSLRLSCVASGFTFSSHGMHWVRQSPGKGLQWVAVINSGGSSTYYTDAVKGRFTISRDNAKNTVYLQMNSLRAEDTAMYYCAKASVGGWEQLVGPHFDYWGQGTLVIVSS
VL: QSVLTQPTSVSGSLGQRVTISCSGSTNNIGILGASWYQLFPGKAPKLLVYGNGNRPSGVPDRFSGADSGDSVTLTITGLQAEDEADYYCQSFDTTLGAHVFGGGTHLTVL
On to B1, for which the “Percent Similarity Score (KD on hN)” value with human NGF is 82%. The “Percent Similarity Score (KD on cN)” value in the assay with canine NGF was determined as 97.7%. Moreover, the “Percent Similarity Score (KD on rN)” value in the assay with rat NGF is 80.5%.

B2: can9L12VH_G102A (antibody, V domains shown)
VH: EVQLVESGGDLVKPGGSLRLSCVASGFTFSSHGMHWVRQSPGKGLQWVAVINSGGSSTYYTDAVKGRFTISRDNAKNTVYLQMNSLRAEDTAMYYCAKESVAGWEQLVGPHFDYWGQGTLVIVSS
VL: QSVLTQPTSVSGSLGQRVTISCSGSTNNIGILGASWYQLFPGKAPKLLVYGNGNRPSGVPDRFSGADSGDSVTLTITGLQAEDEADYYCQSFDTTLGAHVFGGGTHLTVL
As to B2, the “Percent Similarity Score (KD on hN)” value in the assay with human NGF turned out to be 3.4%. In the assay with canine NGF, the “Percent Similarity Score (KD on cN)” value came to 11%. In addition, the “Percent Similarity Score (KD on rN)” value with rat NGF was found to be 4.7%.

B3: can9L12VH_G103A (antibody, V domains shown)
VH: EVQLVESGGDLVKPGGSLRLSCVASGFTFSSHGMHWVRQSPGKGLQWVAVINSGGSSTYYTDAVKGRFTISRDNAKNTVYLQMNSLRAEDTAMYYCAKESVGAWEQLVGPHFDYWGQGTLVIVSS
VL: QSVLTQPTSVSGSLGQRVTISCSGSTNNIGILGASWYQLFPGKAPKLLVYGNGNRPSGVPDRFSGADSGDSVTLTITGLQAEDEADYYCQSFDTTLGAHVFGGGTHLTVL
As for B3, the “Percent Similarity Score (KD on hN)” value with human NGF was 38.2%. For the same molecule, the “Percent Similarity Score (KD on cN)” value in the assay with canine NGF worked out at 99.8%. Also, the “Percent Similarity Score (KD on rN)” value in the assay with rat NGF stood at 62.5%.

B4: can9L12VH_G55A (antibody, V domains shown)
VH: EVQLVESGGDLVKPGGSLRLSCVASGFTFSSHGMHWVRQSPGKGLQWVAVINSGASSTYYTDAVKGRFTISRDNAKNTVYLQMNSLRAEDTAMYYCAKESVGGWEQLVGPHFDYWGQGTLVIVSS
VL: QSVLTQPTSVSGSLGQRVTISCSGSTNNIGILGASWYQLFPGKAPKLLVYGNGNRPSGVPDRFSGADSGDSVTLTITGLQAEDEADYYCQSFDTTLGAHVFGGGTHLTVL
For B4, the “Percent Similarity Score (KD on hN)” value with human NGF came to 100%. Besides, in the assay with canine NGF, the “Percent Similarity Score (KD on cN)” value was found to be 100%. Moreover, the “Percent Similarity Score (KD on rN)” value with rat NGF stood at 99.3%.

B5: can9L12VH_F112A (antibody, V domains shown)
VH: EVQLVESGGDLVKPGGSLRLSCVASGFTFSSHGMHWVRQSPGKGLQWVAVINSGGSSTYYTDAVKGRFTISRDNAKNTVYLQMNSLRAEDTAMYYCAKESVGGWEQLVGPHADYWGQGTLVIVSS
VL: QSVLTQPTSVSGSLGQRVTISCSGSTNNIGILGASWYQLFPGKAPKLLVYGNGNRPSGVPDRFSGADSGDSVTLTITGLQAEDEADYYCQSFDTTLGAHVFGGGTHLTVL
Take B5: in the assay with human NGF, the “Percent Similarity Score (KD on hN)” value was 8%. The “Percent Similarity Score (KD on cN)” value with canine NGF was 28.3%. Also, in the assay with rat NGF, the “Percent Similarity Score (KD on rN)” value came to 11.8%.

B6: can9L12VH_H111A (antibody, V domains shown)
VH: EVQLVESGGDLVKPGGSLRLSCVASGFTFSSHGMHWVRQSPGKGLQWVAVINSGGSSTYYTDAVKGRFTISRDNAKNTVYLQMNSLRAEDTAMYYCAKESVGGWEQLVGPAFDYWGQGTLVIVSS
VL: QSVLTQPTSVSGSLGQRVTISCSGSTNNIGILGASWYQLFPGKAPKLLVYGNGNRPSGVPDRFSGADSGDSVTLTITGLQAEDEADYYCQSFDTTLGAHVFGGGTHLTVL
In the case of B6, the “Percent Similarity Score (KD on hN)” value with human NGF was found to be 2.79%. Further, the “Percent Similarity Score (KD on cN)” value with canine NGF stood at 10.1%. Besides, the “Percent Similarity Score (KD on rN)” value in the assay with rat NGF was 3.25%.

B7: can9L12VH_G33A (antibody, V domains shown)
VH: EVQLVESGGDLVKPGGSLRLSCVASGFTFSSHAMHWVRQSPGKGLQWVAVINSGGSSTYYTDAVKGRFTISRDNAKNTVYLQMNSLRAEDTAMYYCAKESVGGWEQLVGPHFDYWGQGTLVIVSS
VL: QSVLTQPTSVSGSLGQRVTISCSGSTNNIGILGASWYQLFPGKAPKLLVYGNGNRPSGVPDRFSGADSGDSVTLTITGLQAEDEADYYCQSFDTTLGAHVFGGGTHLTVL
For the molecule B7, the “Percent Similarity Score (KD on hN)” value with human NGF turned out to be 100%. Besides, in the assay with canine NGF, the “Percent Similarity Score (KD on cN)” value was determined as 100%. Also, the “Percent Similarity Score (KD on rN)” value with rat NGF worked out at 99.9%.

B8: can9L12VH_G54A (antibody, V domains shown)
VH: EVQLVESGGDLVKPGGSLRLSCVASGFTFSSHGMHWVRQSPGKGLQWVAVINSAGSSTYYTDAVKGRFTISRDNAKNTVYLQMNSLRAEDTAMYYCAKESVGGWEQLVGPHFDYWGQGTLVIVSS
VL: QSVLTQPTSVSGSLGQRVTISCSGSTNNIGILGASWYQLFPGKAPKLLVYGNGNRPSGVPDRFSGADSGDSVTLTITGLQAEDEADYYCQSFDTTLGAHVFGGGTHLTVL
As for B8, the “Percent Similarity Score (KD on hN)” value with human NGF was found to be 96.2%. The “Percent Similarity Score (KD on cN)” value with canine NGF is 100%. Further, in the assay with rat NGF, the “Percent Similarity Score (KD on rN)” value was determined as 93.8%.

B9: can9L12VH_F29A (antibody, V domains shown)
VH: EVQLVESGGDLVKPGGSLRLSCVASGFTASSHGMHWVRQSPGKGLQWVAVINSGGSSTYYTDAVKGRFTISRDNAKNTVYLQMNSLRAEDTAMYYCAKESVGGWEQLVGPHFDYWGQGTLVIVSS
VL: QSVLTQPTSVSGSLGQRVTISCSGSTNNIGILGASWYQLFPGKAPKLLVYGNGNRPSGVPDRFSGADSGDSVTLTITGLQAEDEADYYCQSFDTTLGAHVFGGGTHLTVL
For the molecule B9, the “Percent Similarity Score (KD on hN)” value with human NGF was found to be 100%. For the same molecule, the “Percent Similarity Score (KD on cN)” value with canine NGF amounted to 100%. For the same molecule, in the assay with rat NGF, the “Percent Similarity Score (KD on rN)” value was 99.9%.

B10: can9L12VH_G109A (antibody, V domains shown)
VH: EVQLVESGGDLVKPGGSLRLSCVASGFTFSSHGMHWVRQSPGKGLQWVAVINSGGSSTYYTDAVKGRFTISRDNAKNTVYLQMNSLRAEDTAMYYCAKESVGGWEQLVAPHFDYWGQGTLVIVSS
VL: QSVLTQPTSVSGSLGQRVTISCSGSTNNIGILGASWYQLFPGKAPKLLVYGNGNRPSGVPDRFSGADSGDSVTLTITGLQAEDEADYYCQSFDTTLGAHVFGGGTHLTVL
In the case of B10, the “Percent Similarity Score (KD on hN)” value with human NGF is 40%. The “Percent Similarity Score (KD on cN)” value with canine NGF is 100%. Moreover, the “Percent Similarity Score (KD on rN)” value with rat NGF turned out to be 62%.

B11: can9L12VH_E105A (antibody, V domains shown)
VH: EVQLVESGGDLVKPGGSLRLSCVASGFTFSSHGMHWVRQSPGKGLQWVAVINSGGSSTYYTDAVKGRFTISRDNAKNTVYLQMNSLRAEDTAMYYCAKESVGGWAQLVGPHFDYWGQGTLVIVSS
VL: QSVLTQPTSVSGSLGQRVTISCSGSTNNIGILGASWYQLFPGKAPKLLVYGNGNRPSGVPDRFSGADSGDSVTLTITGLQAEDEADYYCQSFDTTLGAHVFGGGTHLTVL
B11: the “Percent Similarity Score (KD on hN)” value with human NGF was determined as 98.4%. Further, the “Percent Similarity Score (KD on cN)” value in the assay with canine NGF was 100%. Also, the “Percent Similarity Score (KD on rN)” value with rat NGF was 100%.

B12: can9L12VH_F27A (antibody, V domains shown)
VH: EVQLVESGGDLVKPGGSLRLSCVASGATFSSHGMHWVRQSPGKGLQWVAVINSGGSSTYYTDAVKGRFTISRDNAKNTVYLQMNSLRAEDTAMYYCAKESVGGWEQLVGPHFDYWGQGTLVIVSS
VL: QSVLTQPTSVSGSLGQRVTISCSGSTNNIGILGASWYQLFPGKAPKLLVYGNGNRPSGVPDRFSGADSGDSVTLTITGLQAEDEADYYCQSFDTTLGAHVFGGGTHLTVL
With B12, the “Percent Similarity Score (KD on hN)” value with human NGF is 100%. Moreover, the “Percent Similarity Score (KD on cN)” value with canine NGF amounted to 100%. Also, the “Percent Similarity Score (KD on rN)” value in the assay with rat NGF was 100%.

B13: can9L12VH_H32A (antibody, V domains shown)
VH: EVQLVESGGDLVKPGGSLRLSCVASGFTFSSAGMHWVRQSPGKGLQWVAVINSGGSSTYYTDAVKGRFTISRDNAKNTVYLQMNSLRAEDTAMYYCAKESVGGWEQLVGPHFDYWGQGTLVIVSS
VL: QSVLTQPTSVSGSLGQRVTISCSGSTNNIGILGASWYQLFPGKAPKLLVYGNGNRPSGVPDRFSGADSGDSVTLTITGLQAEDEADYYCQSFDTTLGAHVFGGGTHLTVL
Regarding B13, the “Percent Similarity Score (KD on hN)” value with human NGF was determined as 13.8%. In addition, the “Percent Similarity Score (KD on cN)” value in the assay with canine NGF came to 38.2%. The “Percent Similarity Score (KD on rN)” value with rat NGF is 51.5%.

B14: can9L12VH_G26A (antibody, V domains shown)
VH: EVQLVESGGDLVKPGGSLRLSCVASAFTFSSHGMHWVRQSPGKGLQWVAVINSGGSSTYYTDAVKGRFTISRDNAKNTVYLQMNSLRAEDTAMYYCAKESVGGWEQLVGPHFDYWGQGTLVIVSS
VL: QSVLTQPTSVSGSLGQRVTISCSGSTNNIGILGASWYQLFPGKAPKLLVYGNGNRPSGVPDRFSGADSGDSVTLTITGLQAEDEADYYCQSFDTTLGAHVFGGGTHLTVL
In the case of B14, the “Percent Similarity Score (KD on hN)” value with human NGF was determined as 97.4%. Besides, the “Percent Similarity Score (KD on cN)” value with canine NGF turned out to be 100%. Besides, the “Percent Similarity Score (KD on rN)” value with rat NGF amounted to 94.8%.

These data come from patent US20210221899A1 (published 2021).
